This is an account of results in patent US20200024330A1.

Assay in all cases: cell-based or functional assay
Test [1] addresses HIV-1 92BR020 envelope protein (Env) on pseudovirus (HIV-1).
In test [2] the target is HIV-1 92RW020 envelope glycoprotein (Env) (HIV-1).
The target of test [3] is HIV-1 92RW020 envelope protein (Env) on pseudovirus (HIV-1).
The target of test [4] is HIV-1 92RW021 envelope glycoprotein (Env) on pseudovirus (HIV-1).
Test [5] deals with HIV-1 92UG031 envelope glycoprotein (Env) (HIV-1).
Test [6] addresses HIV-1 93RW029 envelope glycoprotein (Env) (HIV-1).
For test [7], the target named is HIV-1 Env of isolate 92UG005 (clade D) (HIV-1).
The target of test [8] is HIV-1 Env of isolate MGRM-D-002 (clade D) (HIV-1).
Test [9] concerns the target HIV-1 Env of isolate MGRM-D-008 (clade D) (HIV-1).
In test [10] the target is HIV-1 Env of isolate MGRM-D-013 (clade D) (HIV-1).
For test [11], the target named is HIV-1 Env of isolate MGRM-G-027 (clade G pseudovirus) (HIV-1).
Test [12] addresses HIV-1 Env of pseudovirus MGRM-Chronic-B-004, clade B (HIV-1).
For test [13], the target named is HIV-1 Env of pseudovirus TRO.11 (Acute), clade B (HIV-1).
The target of test [14] is HIV-1 Env of pseudovirus VLGCB3, clade B (HIV-1).
In test [15] the target is HIV-1 MGRM-A-010 envelope glycoprotein (Env) (HIV-1).
The target of test [16] is HIV-1 MGRM-C-001 Env (HIV-1).
Test [17] concerns the target HIV-1 MGRM-C-013 Env (HIV-1).
The target of test [18] is HIV-1 MGRM-C-025 Env (HIV-1).
Test [19] deals with HIV-1 MGRM-F1-018 Env (pseudovirus) (HIV-1).
Test [20] concerns the target HIV-1 Env of isolate 6535.3 (pseudovirus) (HIV-1 isolate 6535.3, subtype B).
Test [21] has as its target HIV-1 Env of isolate 92BR020 (pseudovirus) (HIV-1 isolate 92BR020, subtype B).
For test [22], the target named is HIV-1 Env of isolate 92UG031 (HIV-1).
The target in test [23] is HIV-1 Env of isolate 92WR021 (HIV-1).
Test [24] deals with HIV-1 Env of isolate MGRM-A-011 (clade A), on pseudovirus (HIV-1).
Test [25] addresses HIV-1 Env of isolate MGRM-A-013 (clade A), on pseudovirus (HIV-1).
In test [26] the target is HIV-1 Env of isolate MGRM-A-014 (clade A), on pseudovirus (HIV-1).
The target of test [27] is HIV-1 Env of isolate MGRM-AE-004 (CRF01_AE), on pseudovirus (HIV-1).
Test [28] has as its target HIV-1 Env of isolate MGRM-AE-008 (CRF01_AE), on pseudovirus (HIV-1).
The target in test [29] is HIV-1 Env of isolate MGRM-AG-013 (CRF_AG), on pseudovirus (HIV-1).
The target of test [30] is HIV-1 Env of isolate MGRM-C-006 (HIV-1).
Test [31] has as its target HIV-1 Env of isolate MGRM-C-020 (HIV-1).
Test [32] addresses HIV-1 Env of isolate MGRM-D-001 (HIV-1).
Test [33] deals with HIV-1 Env of isolate MGRM-D-005 (HIV-1).
Test [34] addresses HIV-1 Env of isolate MGRM-D-028 (subtype D), on pseudovirus (HIV-1).
For test [35], the target named is HIV-1 Env of isolate PVO.4 (HIV-1).
The target in test [36] is HIV-1 Env of isolate SF162 (HIV-1) (UniProt P19550).
Test [37] deals with HIV-1 Env of isolate TRO.11 (HIV-1).
The target of test [38] is HIV-1 JR-CSF Env K168A (HIV-1 (isolate JR-CSF)) (UniProt P20871).
The target in test [39] is HIV-1 JR-CSF Env N156A (HIV-1 (isolate JR-CSF)) (UniProt P20871).
Test [40] concerns the target HIV-1 JR-CSF Env R166A (HIV-1 (isolate JR-CSF)) (UniProt P20871).
Test [41] concerns the target HIV-1 JR-CSF Env R480A (HIV-1 (isolate JR-CSF)) (UniProt P20871).
Test [42] addresses HIV-1 JR-CSF Env T162A (HIV-1 (isolate JR-CSF)) (UniProt P20871).
Test [43] has as its target HIV-1 MGRM-C-027 envelope glycoprotein (Env) on pseudovirus (HIV-1).
The target of test [44] is aMLV envelope on pseudovirus (negative control virus).

Turning to 2F5 (antibody), the neutralization IC50 in test [1] was over 50 µg/mL; in test [3], 3.37 µg/mL. In addition, the IC50 (µg/ml), pseudovirus neutralization in test [2] was 3.36 µg/mL; in test [4], 4.16 µg/mL; in [5], 3.81 µg/mL; in test [6], over 50 µg/mL; in [7], 8.61 µg/mL; in [8], 24.6 µg/mL. The IC50 (µg/ml), pseudovirus neutralization was over 50 µg/mL in test [9]; 2.12 µg/mL in test [10]; 0.28 µg/mL in test [11]; 2.41 µg/mL in [12]; over 50 µg/mL in test [13]; over 50 µg/mL in [14]. Also, the IC50 (µg/ml), pseudovirus neutralization in test [15] is 20.8 µg/mL; in test [19], 3.91 µg/mL. The IC50 in [16] is over 50 µg/mL; in [17], 18.4 µg/mL; in [18], over 50 µg/mL.

2G12 (antibody): the neutralization IC50 is 2.26 µg/mL in test [1] and 0.56 µg/mL in [3]. Also, the IC50 (µg/ml), pseudovirus neutralization in test [2] is 0.48 µg/mL; in test [4], over 50 µg/mL; in [5], over 50 µg/mL; in test [6], over 50 µg/mL; in [7], over 50 µg/mL; in [8] it was over 50 µg/mL. Further, the IC50 (µg/ml), pseudovirus neutralization was over 50 µg/mL in test [9]; over 50 µg/mL in test [10]; over 50 µg/mL in test [11]; 8.65 µg/mL in [12]; 0.29 µg/mL in [13]; 7.9 µg/mL in test [14]. The IC50 (µg/ml), pseudovirus neutralization in test [15] was 17 µg/mL; in test [19], over 50 µg/mL. Further, the IC50 was 2.93 µg/mL in test [16], over 50 µg/mL in [17] and over 50 µg/mL in test [18].

As to 5114_A19 (PGT-128) (antibody), the IC50 (µg/mL) neutralization came to 0.011 µg/mL in test [20] and 0.009 µg/mL in [21]. In addition, the neutralization IC50 is over 50 µg/mL in [22] and 0.005 µg/mL in [23]. In addition, the IC50, single-round pseudovirus neutralization in [24] is over 50 µg/mL; in [25] it was 0.008 µg/mL; in [26], 0.007 µg/mL; in test [27], over 50 µg/mL; in [28], over 50 µg/mL; in test [29], 0.004 µg/mL. Further, the IC50 worked out at 0.014 µg/mL in test [30]; 5.85 µg/mL in test [31]; 0.138 µg/mL in test [32]; 0.051 µg/mL in test [33]; 0.005 µg/mL in test [35]; 0.007 µg/mL in [36]. In addition, the IC50 in [37] was determined as 0.018 µg/mL. Also, the IC50, pseudovirus neutralization in test [34] is over 50 µg/mL. Also, the Fold IC50 increase relative to wild-type in test [38] worked out at 1.1 fold; in test [39], 0.4 fold; in test [40] it was 2.7 fold; in [41], 0.1 fold; in [42], 1.1 fold.

Consider 5136_H01 (PGT-131) (antibody), for which the results for the IC50 (µg/mL) neutralization in test [20] and in test [21] were 0.056 µg/mL and 6.16 µg/mL, respectively. Besides, the results for the neutralization IC50 in [22] and in test [23] were over 50 µg/mL and 0.012 µg/mL, respectively. The IC50, single-round pseudovirus neutralization is over 50 µg/mL in test [24]; over 50 µg/mL in [25]; 15.4 µg/mL in [26]; over 50 µg/mL in test [27]; over 50 µg/mL in test [28]; 0.03 µg/mL in [29]. The IC50 in test [30] was 0.611 µg/mL; in [31], over 50 µg/mL; in [32], over 50 µg/mL; in test [33], over 50 µg/mL; in test [35] it was over 50 µg/mL; in [36], 0.025 µg/mL. Besides, the IC50 in test [37] stood at 1.91 µg/mL. Besides, the IC50, pseudovirus neutralization in test [34] is over 50 µg/mL. Moreover, the Fold IC50 increase relative to wild-type in [38] amounted to 1.7 fold; in test [39] it was 1 fold; in [40], 1.6 fold; in test [41] it was 1.5 fold; in [42], 0.6 fold.

Consider 5147_N06 (PGT-130) (antibody), for which the IC50 (µg/mL) neutralization in test [20] was 0.031 µg/mL; in test [21], 1.4 µg/mL. Also, the neutralization IC50 was 0.474 µg/mL in test [7], over 50 µg/mL in test [22] and 0.004 µg/mL in test [23]. In test [7], this substance showed a neutralization IC80 of over 10 µg/mL. In test [7], this substance returned a neutralization IC90 of over 10 µg/mL. In [7], this substance had a neutralization IC95 of over 10 µg/mL. Moreover, the IC50, single-round pseudovirus neutralization in [24] was over 50 µg/mL; in test [25], over 50 µg/mL; in [26], 0.161 µg/mL; in test [27] it was 2.43 µg/mL; in [28], over 50 µg/mL; in [29], 0.01 µg/mL. In addition, the 50% inhibitory concentration (IC50) in [30] is 0.095 µg/mL; in test [31], over 50 µg/mL; in test [32] it was over 50 µg/mL; in test [33], over 50 µg/mL; in test [35], 5.17 µg/mL; in test [36], 0.007 µg/mL. This substance returned an IC50 in test [37] of 0.257 µg/mL. Besides, the IC50, pseudovirus neutralization in test [34] amounted to 0.825 µg/mL. Further, the Fold IC50 increase relative to wild-type in [38] amounted to 1.2 fold; in [39], 1.5 fold; in test [40], 1.2 fold; in [41], 1 fold; in test [42] it was 0.6 fold. Further, the IC50 (ug/ml), neutralizing activity in [43] was 0.0052 µg/mL; in [44], over 10 µg/mL.

Consider 5343_B08 (PGT-135) (antibody), for which the IC50 (µg/mL) neutralization in test [20] was over 50 µg/mL; in test [21] it was 0.073 µg/mL. Besides, the neutralization IC50 in [22] and in [23] was over 50 µg/mL throughout. The IC50, single-round pseudovirus neutralization in test [24] is over 50 µg/mL; in test [25], over 50 µg/mL; in test [26] it was 0.636 µg/mL; in test [27], over 50 µg/mL; in [28], over 50 µg/mL; in test [29], over 50 µg/mL. For the same substance, the IC50 in test [30] was over 50 µg/mL; in [31] it was over 50 µg/mL; in test [32], over 50 µg/mL; in [33], over 50 µg/mL; in test [35] it was over 50 µg/mL; in test [36], 0.023 µg/mL. The same substance gave a half-inhibitory concentration (IC50) in test [37] of 0.03 µg/mL. The same substance gave an IC50, pseudovirus neutralization in test [34] of over 50 µg/mL. For the same substance, the Fold IC50 increase relative to wild-type stood at 0.4 fold in test [38]; 0.3 fold in [39]; 0.9 fold in test [40]; 1.4 fold in [41]; 0.9 fold in test [42].

As usually defined, the IC50 is the concentration at which inhibition is half-maximal. A higher IC50 goes with lower potency.
